Tested on: subclone of SKOV-3.ip1
Assay: long-term survival study, E1A-Cterm lipid:DNA complex, aggressive SKOV-3.ip1 subclone in nude mice
Format: in vivo, mouse
Protocol: FIG. 9. Comparison of tumor suppressor activity of full-length E1A and mini-E1ACterm. Mice bearing tumors from an aggressive subclone of the SKOV-3.ip1 cell line were injected with the treatment compounds indicated. […] As also shown, while all nine control animals were dead by that time, none of the animals receiving full-length E1A or mini-E1ACterm had died. Mini-E1ACterm was equivalent to full-length E1A in tumor suppression.
Long-term survival studies were performed using the E1A-Cterm mini-gene in a tumor engraftment model and DNA-lipid formulations as described above. In this study, it appears that the subclone of SKOV-3.ip1 used may have been even more aggressive in tumor formation than the SKOV-3.ip1 parent used to induce tumors in the nude mice since no control mice survived for more than about 35 days. The protocol was otherwise as in the long-term study above except that: (i) 10 mice were used in each group receiving E1A formulations and 9 mice were used in the control group; (ii) 5% dextrose was used for control injections; and (iii) a lipid:DNA ratio of 10:1 w as used for the treatment formulations however, as above, each injection contained 15 μg of DNA.

B1: mini-E1ACterm: mini-E1A construct in pcDNA1.1 encoding E1A 186-289; expected polypeptide about 80 amino acids, 209-289, SEQ ID NO:1 (nucleic acid)
chain: CCTGTGTCTGAACCTGAGCCTGAGCCCGAGCCAGAACCGGAGCCTGCAAGACCTACCCGCCGTCCTAAAATGGCGCCTGCTATCCTGAGACGCCCGACATCACCTGTGTCTAGAGAATGCAATAGTAGTACGGATAGCGTGGACTCCGGTCCTTCTAACACACCTCCTGAGAGACACCCGGTGGTCCCGCTGTGCCCCATTAAACCAGTTGCCGTGAGAGTTGGTGGGCGTCGCCAGGCTGTGGAATGTATCGAGGACTTGCTTAACGAGCCTGGGCAACCTTTGGACTTGAGCTGTAAACGCCCCAGGCCATAA
modifications: pcDNA1.1 vector
About day 35, lipid:DNA 10:1, 15 μg DNA per injection, 10 mice per group
  animals alive when the last dextrose control mouse died: 100%
Visual inspection, the 4 surviving mice
  tumor masses in surviving mice after 21 weeks: no signs of such tumor masses

From patent US6683059B1, “Mini-E1A gene and gene products” (priority 1996, dated 2004)
